Experimental findings from the DeepSol protein solubility set are described below.

The series can be described thus: soluble on expression in E. coli; label from the status in PepcDB or PDB records.
On to “MLLAYIDEIGSTGAFIHPNHNRFSDSPAFGYGGFIIPEESAREFGSYFAERKKIFFRNEIPNNIDPGRWEKKGSDLLFALAINERPQNLRLLGSLISKLRKLDGHLFYYAEEKPIGTPKATNCGATEFRDREETAMRETLNRIARHADYEDSRVLVMMDQINEKSRIQRLPAMYAHILGRASEHQEMRRIVEPPMHIDSQLSTNIQFADWICSLAKRAIEYQLVEDSRYSWVSTAEALTPARGSFTYESKLRLYHRAIDDLNHSSILRPTRPLFNSKINQTLDEENRRKLEKVRAATIKEANN”, for which the “soluble on expression in E. coli” value is on record as “not soluble”.

With “MYKWLLSVLLVLMSTVVHAADCFDLAGRDYKIDPDLLRAISWKESRNRANAVGINPVTGYGSGLMQVDSQHFNELARYGIKPEQLVSDPCLNIYTGAYYLAIAFRKWGVSWTAVGAYNAGFKKTPLQDARRLDYATDVHRIWIAIKQSKTRQTPAR”, the “soluble on expression in E. coli” value is “not soluble”.

On to “MKGVSRHVFVRIVQAIIMKHLVYCFKLDNDEFNLKNKYKKYKPCVTRVYDDLNTIYRYISNNKIINLEHHHHHH”, for which the “soluble on expression in E. coli” value is recorded as “not soluble”.

On to “MSTKLYYIYDPMCSWCWGYRPVWDLLQQHLPKSIDVEYVAGGLAPDSDSAMPIDQQQMIQNHWRTIEQKLGTKFNYDFWRENTARRSTYNACRAAIAAHKQSCQKAMIDAIQQAYYLRALNPSDVDVLVSVAKELSEQTSPTLDVAQFIVDINSSETNKELAKQVTLARELTQQGFPSLVLDVDGVIQQIPLDYSDYKTTLAYIIKKTS”, for which the “soluble on expression in E. coli” value was “not soluble”.

On to “PVFENNNQRYYESLPFKQLKELKIACSQYGPTAPFTIAMIENLGTQALPPNDWKQTARACLSGGDYLLWKSEFFEQCARIADVNRQQGIQTSYEMLIGEGPYQATDTQLNFLPGAYAQISNAARQAWKRLPSLEHHHHHH”, for which the “soluble on expression in E. coli” value is given as “soluble”.

As for “MEFKLHNGSGGLCCKSCSRQDKKLNTYDWLADIPGNAEESDMVEVQFKNTRKGYYRNSNKIKLEKGDIVAVEATPGHDIGTVTLTGRLVPLQMKKANFKQDAEIKRIYRKAKAVDMEKYEEAKAKEHTTMIRARQIAASLNLDMKIGDVEYQGDGNKAIFYYIADERVDFRQLIKVLAEAFRVRIEMKQIGARQEAGRIGGIGPCGRELCCATWMTSFVSVSTSAARYQDISLNPQKLAGQCAKLKCCLNYEVDCYVEAQKRLPSREIELETKDGTYYFFKADILSNQISYSTDKNFAANLVTISGKRAFEVIGLNKRGIKPDSLLEAERKPEPKKPVDLLEQESLTRFDRDRRRNAKDGNGKDEGGNGNRKKKKKNNNHPQQATNGETQSSQPTPINAQENNGSQPVQNQQRTRGERPKNNNRNNNQPRKNNESREPRSNENRETRKNEPREQRPPREPRGPRNNEQPKRIEKAQENEKPAQELEHHHHHH”, the “soluble on expression in E. coli” value was “not soluble”.

Regarding “MAVGAPFLYRYSLYNCAYVILNGKVLGIVPKSYIPNYSEFYEKRWFTEGFNIKGLNVDLDFQKEVPFGTDLIFSFKNLKVGFEICEDLWVTIPPSSNLALMGANLICNLSASNELVSKSSYRKSLVQNQSARTMCSYIYSSAGVHESTTDLLFSGHMIIAENGTIIKENNRFKRENDLLTGIVDLFKLDAERIKNISFRNSTFNENNEPRFIPFNLENTEIKNFDREIDKHPFLPKSQYAMEARCEEILNIQAAALAKRLEHTNLKKAVIGISGGLDSTLALLVVVKTFDMLNIPRENIITITMPGFGTTDRTYNNAVTLCKELHCDFREINIVNAALQHFEDIGHDKDIHDVTYENVQARERTQILMDLANKEGGLLIGTGDLSELALGWCTYNGDHMSMYSVNCSIPKTLVRFLVNYFANHEISNDAKEALLDILDTPVSPELLPKDKEGKIAQKTEDIVGPYELHDFFLYHFIKHGSSPERILFLAKEAFKNDYDEETLKKWLDKFIRRFFTQQFKRSALPDGPKVGSISLSPRGDWRMPSDAVYNDFLILEHHHHHH”, the “soluble on expression in E. coli” value is listed as “not soluble”.

In the case of “MMGLLKRLLRVVRAEAHSVVEKLEDPIKITEEGLRELRKQLKEAMEALAQVKASQIRFEREARNEKERAKALVKKAESLLLQAQEGKISPEEAEKLAAELIQKAELHEKNARRLEEEAKRQREMAVKLQAKIDELKVQIAKYEAELKTLKARLATARAVKKVNKQIAKVDPSDTIAMLERMKEKVEEEETLAQAYEELAKQEVALDVESEAEKKLKEVESKQKLEELKKRLGLSLEHHHHHH”, the “soluble on expression in E. coli” value is given as “not soluble”.

In the case of “METQLSVQLGLDSLLTDFGLESVMNKQQQLFANMGLSDIGAPTPSTAIPVPNAHLHPSMVAGSDPSNPVVGFGFGSPSSTTSSSPPLSNSPTIEQQQHAQLTAMMQGIMSNNNVAVSNGSGVQVASVPAVHCSGCKSNETATSFCQDCNANLCDNCTMAHKFMHCFADHRVVSLTTPGTGSSSSSTSSSSSASSTSSHQVPSLGGKQSPDSMMLGSGKRSVLCLQHRASELVFFCVSCNLAICRDCTVSDHPSGTHQYELIADVADKQMLKMEQLIADARSKHADMLDMFKQVDNKQQVLTASLHNAHAQLEETVSNLINVIQDQKKTLAKDIDNAFAAKQIQLTMVDKRIQSMADKLSQTIEFSRRLMSFASPAEVMVFKQLLDTRLQLFLGFNPDTSGVLMTPCEIEYLGAAGLFNNSASTVSQLLGSVHGGSPINNAPAANDFLMPQAGLAPIGRAQSRIIPIEQNQLARSPPHHIAGSLPMNAYSDSNLLRPNKDFGGSSQSLGPFNPLGASVPGAAADPFSSQYDKWSLGVEPSVGGLLEGGNVDEEKFQTLFPPSRSQIKRQKMIYHCKFGEFGVMEGQFTEPSGVAVNGQGDIVVADTNNHRIQVFDKEGRFKFQFGECGKRDGQLLYPNRVAVNRTTGDFVVTERSPTHQIQVYNQYGQFLRKFGANILQHPRGVCVDSKGRIIVVECKVMRVIIFDMFGNILQKFSCSRYLEFPNGVCTNDKNEILISDNRAHCIKVFSYEGQYLRQIGGEGVTNYPIGVGINSLGEVVVADNHNNFNLTVFSQDGTMIGALESRVKHAQCFDVALVDDGSVVLASKDYRLYLYRFLPATSGQSTSSASSQI”, the “soluble on expression in E. coli” value was “not soluble”.

In the case of “MGSDKIHHHHHHMSQTLEQVIQNAGDLVNFVRNQQVGPNVYPGVPAEYSNWRNEQWAWAHSAVLYNQSYHMVDLAVKGPDAFKMLEHLGINSFKNFQPDRAKQFVPVTPDGYVIGDVILFYLDENHFNLVGRAPTIEWVEYHAASGNWNVTVERDERWAMRTDGKRNSYRFQIQGPNAMKIIEKATGKTAPDLKFFHMTRMTIGGKEVRALRHGMAGQPGFELMGPWEDYGAVHAALVEAGKGFQMALVGGRAYSSNTLESGWIPSPFPAIYTGEALRPYREWLSANSYEAKCSVGGSYVPETIEGYYTTPWDLGYGPFVKFDHDFIGRAALEKMAAEGKHRTKVTLALDNEDVMRVQSSALSKGDRAKFMEYPSAVYSMHPFDQVLADGKMVGLSTWIGYTANEGKFLTLAMMEPGYVEPGTQVSLLWGEPNGGTTKPTVEPHVQTEIKATVAAVPYSEVARDSYAEGWRTKK”, the “soluble on expression in E. coli” value is on record as “not soluble”.

On to “MGSDKIHHHHHHMLWSMTDGATPATPPTAAPEERFPHVNPLVYRFVVDVTFLPVLLTGMHIDVHGREHVPPPGTPLVVAANHQSALDPFLIARALPPGRYLQFMAKRELFVPVIGDIIRAGGSFPVDRESNDVGAIRTSLRILKAGGTVGIFPQGTRGGQELHGGAALIAARGRAPILPAGISHDGKRWVVRFGEPLPARGGIKANTEELGRRLQVLAQPVGRHL”, for which the “soluble on expression in E. coli” value is recorded as “not soluble”.

“GPGSMMNLAPDTITIGAQRNTELLLLEYLRSTNPHIHALWQRHPNKDNDASSSSAASSPSKDTRGASGSDVGDANASSSSAASALRESFDYTEPRLYRAAHVHFLMENLSVAPQGFSSLYPSRPWIVYWALQAADVLNSMESEVLHRTPPSAIVAFLHSCLSVDHTCQAEVNNRLAAAATSARGAPEGKDPHVTGTPLESSTTSVTLERDSADATSATLMPPVEDAAEVAEGPSRPVMGFAGGATHQEPHIASSYAACCALAMLSWYGDGAPLRQLPRAAIKRWLLTLRNEDGSFRVHGGGESDIRASYCAAVITTLLGLDDPTTFDGEAGRCEFVDDVRDVPVLTLQTARFVAACQTHEGGFTCSPTASEAHGAYTQCGLAALLLMKQPHMVHQASLRRWLAARQLNYEGGFNGRTNKLVDSCYSHWIGASHVLLRTVEAYTKCFTEVPTTHSRNGDGTGGCEDGYREDVDCTPSARCLRAREVVLLDHAQLLDAKMIHASADDAWDRAESAHLTRLGVVDQFLGADDAVLRSAEEKRTAVTALYERLLESRLAAVRSCDGNGDAAAGDVQGSLEAWRARQAFLYADVGDFYFNQRKLQDYVLRCCQDSEIGGLMDKPQTAHDGYHTCYSLSGLSAAQNLQYRTHVTAADAAYPSTYLERAFARSYLPGRESGSTSGNEEGSCGVVLGLPNTSAAAESMLLRTTSPIFNIHQSRVLSALRAWSVKAFV”: the “soluble on expression in E. coli” value is listed as “not soluble”.

On to “MGSSHHHHHHSSGLVPRGSHMEAPAAVVTGAAKRIGRAIAVKLHQTGYRVVIHYHNSAEAAVSLADELNKERSNTAVVCQADLTNSNVLPASCEEIINSCFRAFGRCDVLVNNASAFYPTPLVQGDHEDNSNGKTVETQVAELIGTNAIAPFLLTMSFAQRQKGTNPNCTSSNLSIVNLCDAMVDQPCMAFSLYNMGKHALVGLTQSAALELAPYGIRVNGVAPGVSLLPVAMGEEEKDKWRRKVPLGRREASAEQIADAVIFLVSGSAQYITGSIIKVDGGLSLVHA”, for which the “soluble on expression in E. coli” value is on record as “soluble”.

“MQEKYNFGKVSSQHKNYSKIETMLRPKGFDKLDHYFRTELDIDLTDETIELLLNSVKAAFGKLFYGAEQRARWNGRDFIALADLNITKALEEHIKNFQKIEQDMGVDELLEYIAFIPPVEMNVGEDLKSEYRNIMGGLLLMHADVIKKATGERKPSREAMEFVAQIVDKVF”: the “soluble on expression in E. coli” value was “soluble”.

For the sequence “MGSDKIHHHHHHMKLQQLEYFMAVSKYASFTLASQKLHTSQPYLSTQLKELERELGASLILRDKKHCRLSPAGEVVAKRTEMIFALIKEAQEEINELVTQGSTTTIRIGTNLIDIDKAFGEVLLLFNQSYPYVSIDFKYYYDLETALETDLIDIGIGIFLDTSIPLEKELIYTESYLLCVNKNHPLAHADSVTIDEIRSLPFAAYSDQVYEKKVFKRWERKINWENRQIVIELPSLHLVLDMVQREKACSILPYSLTDELNRRNLVGIPLEDSPERAIYLVQNNHHGHCEAHRYLFEQLRYLF”, the “soluble on expression in E. coli” value is on record as “not soluble”.

For “RKEDHARLRALNGLLYKALTDLLCTPEVSQELYDLNVELSKVSLTPDFSACRAYWKTTLSAEQNAHMEAVLQRSAAHMRHLLMSQQTLRNVPPIVFVQDKGNAALAELDQLLAVAD”, the “soluble on expression in E. coli” value is reported as “soluble”.

For the sequence “MRKYSQRHIPVMVREVIEFLKPEDEKIILDCTVGEGGHSRAILEHCPGCRIIGIDVDSEVLRIAEEKLKEFSDRVSLFKVSYREADFLLKTLGIEKVDGILMDLGVSTYQLKGENRGFTFEREEPLDMRMDLESEVTAQKVLNELPEEELARIIFEYGEEKRFARRIARKIVENRPLNTTLDLVKAVREALPSYEIRRRKRHFATKTFQAIRIYVNRELENLKEFLKKAEDLLNPGGRIVVISFHSLEDRIVKETFRNSKKLRILTEKPVRPSEEEIRENPRARSGRLRAAERIEEGGD”, the “soluble on expression in E. coli” value is given as “soluble”.

“PVDINAATHTIVRGDTVYNISKRYHISQDDFRAWNGMTDNTLSIGQIVKVKPAGYAAPKAAAVKSRPAVPAAAQPPVQSAPVDINAATHTIVRGDTVYNISKRYHISQDDFRAWNGMTDNMLSIGQIVKVKPAGYAAPKTAAVESRPAVPAAVQTPVKPAAQPPVQSAPQPAAPAAENKAVPAPAPQSPAASPSGTRSVGGIVWQRPTQGKVVADF”: the “soluble on expression in E. coli” value is “not soluble”.

Consider “SEQTEVLKPRTLADLIRILHQLFAGDEVNVEEVQAIMEAYESDPTEWAMYAKFDQYRYTRNLVDQGNGKFNLMILCWGEGHGSSIHDHTNSHCFLKMLQGNLKETLFAWPDKKSNEMVKKSERVLRENQCAYINDSVGLHRVENISHTEPAVSLHLYSPPFDTCHAFDQRTGHKNKVTMTFHSKFGIRTPNATSGSLENN”, for which the “soluble on expression in E. coli” value is reported as “soluble”.
